Where a chain is given by its changes, count along the chain named.
B1: T1: Triticum aestivum EPSPS mutant containing G113(96)A and P118(101)S (SEQ ID NO: 4), gene SEQ ID NO: 21; Control Group 2 of Example 7 (protein)
chain: MATSVAAPAAPAGAEEVVLQPIREISGAVQLPGSKSLSNRILLLSALSEGTTVVDNLLNSEDVHYMLEALEALGLSVEADKVAKRAVVVGCGGRFPVEKDAKEEVKLFLGNAATAMRSLTAAVVAAGGNATYVLDGVPRMRERPIGDLVVGLQQLGADVDCFLGTNCPPVRINGKGGLPGGKVKLSGSISSQYLSSLLMAAPLALEDVEIEIIDKLISVPYVEMTLKLMEHFGVTAEHSDSWDRFYIKGGQKYKSPGNAYVEGDASSASYFLAGAAITGGTVTVEGCGTTSLQGDVKFAEVLEMMGAKVTWTDTSVTVTGPPRQPFGRKHLKAVDVNMNKMPDVAMTLAVVALFADGPTAIRDVASWRVKETERMVAIRTELTKLGATVEEGPDYCIITPPEKLNITAIDTYDDHRMAMAFSLAACAEVPVTIRDPGCTRKTFPNYFDVLSTFVKN
modifications: Triticum aestivum EPSPS mutant with mutations G113(96)A and P118(101)S
B2: R5: Oryza sativa EPSPS mutant containing G111(96)A, P116(101)S, and A155(138)T (SEQ ID NO: 9), encoding gene SEQ ID NO: 19 (protein)
chain: MASNAAAAAAKAEEIVLQPIREISGAVQLPGSKSLSNRILLLSALSEGTTVVDNLLNSEDVHYMLEALKALGLSVEADKVAKRAVVVGCGGKFPVEKDAKEEVQLFLGNAATAMRSLTAAVTAAGGNATYVLDGVPRMRERPIGDLVVGLKQLGTDVDCFLGTECPPVRVKGIGGLPGGKVKLSGSISSQYLSALLMAAPLALGDVEIEIIDKLISIPYVEMTLRLMERFGVKAEHSDSWDRFYIKGGQKYKSPGNAYVEGDASSASYFLAGAAITGGTVTVQGCGTTSLQGDVKFAEVLEMMGAKVTWTDTSVTVTGPPREPYGKKHLKAVDVNMNKMPDVAMTLAVVALFADGPTAIRDVASWRVKETERMVAIRTELTKLGASVEEGPDYCIITPPEKLNITAIDTYDDHRMAMAFSLAACADVPVTIRDPGCTRKTFPNYFDVLSTFVRN
modifications: Oryza sativa EPSPS mutant with mutations G111(96)A, P116(101)S, and A155(138)T
B3: R4: Oryza sativa EPSPS mutant containing G111(96)A and P116(101)S (SEQ ID NO: 8), encoding gene SEQ ID NO: 18 (protein)
chain: B2 chain with T155A
modifications: Oryza sativa EPSPS mutant with mutations G111(96)A and P116(101)S

Tested on: transgenic rice seedlings
Experiment: Glyphosate resistance of EPSPS mutants in transgenic rice sprayed with glyphosate (Example 8)
Type: in vivo, rice (Nipponbare)
Excerpt: The glyphosate resistance of the EPSPS mutants of the above examples in transgenic rice was detected by the following method.
Plasmids of monoclonal resistant strain comprising pADV5-EPSPS of Examples 1-4 (containing the EPSPS mutant genes) were extracted in accordance with a conventional method. They were subjected to double enzymatic digestion with Pacl and BstEII to recover small fragments, and then the small fragments were ligated, using T4 DNA ligase, to a pGVP1 vector subjected to double enzymatic digestion in the same manner, to obtain a pGVP1-EPSPS vector having a structure as shown in FIG. 8.
The pGVP1-EPSPS vector was transformed into EHA105 (Agrobacterium tumefaciens) competent cells, and single clones were picked out for colony PCR detection to obtain positive strains. Then, the positive strains were inoculated into and propagated in 1 mL of a YEP medium containing 50 μg·mL^−1 kanamycin and 50 μg·mL^−1 rifampicin, and stored at −80° C. or used in subsequent experiments.
400 ul of a strain containing the target gene vector stored at −80° C. was added to a culture dish with a solid medium containing YEP+50 μg/mL rifampicin+50 μg/mL kanamycin and cultured in the dark at 28° C. for 24 hours, and then the bacterium was added to an infection medium and adjusted to OD=0.2 as an infection solution.
Disinfection and Pre-culture: seeds of mature rice (Nipponbare) were manually dehulled. Full seeds with no bacterial plaques were selected and disinfected in accordance with the following steps: the seeds were placed in a 50 ml sterile centrifuge tube and disinfected with the added 70% ethanol in water for 30 seconds, ethanol solution was poured out, and the seeds were washed once with sterile water; 10 to 20 ml of 2.6% sodium hypochlorite solution was added to soak and disinfect the seeds for 20 minutes. The sodium hypochlorite solution was poured out, and the seeds were soaked and washed with sterile water for 6 or 7 times, for 3 minutes each time.
Induction and Subculture: the seeds were placed on and blotted with sterile filter paper, and the mature embryos were placed in an induction medium, with 12 embryos per dish. After the operation was completed, the culture dishes were sealed with parafilm and underwent culturing in the dark at 30° C. for 21 to 28 days. Callus tissue was transferred to a fresh medium and continued to be cultured for about 7 to 14 days. Spherical callus tissue with a dimension of 1 to 2 mm was taken as an infection receptor.
The callus tissue was placed into a centrifuge tube or culture cup, infected in the prepared Agrobacterium suspension added thereto for 10 minutes, and shaken several times during the period; the bacterial solution was poured out, the callus tissue was taken out and placed on sterile filter paper for absorbing the bacterial solution from its surface (for about 30 minutes); the callus tissue was placed on sterile filter paper in culture dishes and cultured in the dark at 25° C. for 2 or 3 days.
Recovery Culture: the co-cultured callus tissue was inoculated on a recovery medium and cultured in the dark at 30° C. for 5 to 7 days.
Primary Screening: the callus was transferred to screening medium 1 (51) and cultured in the dark at 30° C. for 14 days.
Secondary Screening: the callus was then transferred to screening medium 2 (S2) and cultured in the dark at 30° C. for 14 days.
Primary Differentiation: the screened resistant callus tissue was transferred to a differentiation medium and cultured for about 21 days at 30° C. under exposure to light for 19 hours.
Secondary Differentiation: new young shoots were selected and moved to a fresh differentiation medium and continued to be cultured for about 21 days.
When the new seedlings grew to about 2 cm, they were moved to a rooting medium and cultured for 3 to 4 weeks at 30° C. under exposure to light (for 16/8 h). […]

[1] = 1X dose glyphosate (1,060 g/ha), day 10 after spraying
[2] = 2X dose glyphosate (2,120 g/ha) on survivors of 1X, after another 10 days
[3] = 5X dose glyphosate (5,300 g/ha) on survivors of 2X, after additional 10 days
[4] = 20X dose glyphosate (21,200 g/ha) on survivors of 5X, after further 10 days

Molecule | % ++&+++ (percentage of moderately and highly glyphosate resistant plants in total plants observed) [1] [%] | plant number with resistance + (low glyphosate resistant) [1] | plant number with resistance ++ (moderately glyphosate resistant) [1] | plant number with resistance +++ (highly glyphosate resistant) [1] | % ++&+++ (percentage of moderately and highly glyphosate resistant plants in total plants observed) [2] [%] | plant number with resistance + (low glyphosate resistant) [2] | plant number with resistance ++ (moderately glyphosate resistant) [2] | plant number with resistance +++ (highly glyphosate resistant) [2] | plant number with resistance − (non-glyphosate resistant, withered or dead) [2] | % ++&+++ (percentage of moderately and highly glyphosate resistant plants in total plants observed) [3] [%] | plant number with resistance + (low glyphosate resistant) [3] | plant number with resistance ++ (moderately glyphosate resistant) [3] | plant number with resistance +++ (highly glyphosate resistant) [3] | plant number with resistance − (non-glyphosate resistant, withered or dead) [3] | % ++&+++ (percentage of moderately and highly glyphosate resistant plants in total plants observed) [4] [%] | plant number with resistance + (low glyphosate resistant) [4] | plant number with resistance ++ (moderately glyphosate resistant) [4] | plant number with resistance +++ (highly glyphosate resistant) [4] | plant number with resistance − (non-glyphosate resistant, withered or dead) [4] | level of glyphosate resistance of transformed rice seedlings compared with the mutant lacking the A138T mutation (R4 for R5, T1 for T2) (in words) (each of 1×, 2×, 5×, and 20× glyphosate doses)
B1 | 70.0 | 1 | 7 | 14 | 36.7 | 4 | 1 | 10 | 15 | 36.7 | 4 | 7 | 4 | 15 | 13.3 | 7 | 4 | 0 | 19 | –
B2 | 92.0 | 0 | 0 | 23 | 84.0 | 0 | 1 | 20 | 4 | 76.0 | 2 | 2 | 17 | 4 | – | 1 | 6 | 13 | 5 | higher levels of glyphosate resistance
B3 | 88.5 | 0 | 0 | 23 | 80.8 | 2 | 1 | 20 | 3 | 69.2 | 3 | 1 | 17 | 5 | 50.0 | 3 | 10 | 3 | 10 | –

From patent US11572572B2, “A138T mutation-containing plant EPSPS mutant, and encoding gene and application thereof” (GEVOTO LLC, priority 2017, dated 2023)
